In test [1] the target is RPTPσ on mouse dorsal root ganglion (DRG) neurons (mouse) (UniProt B0V2N1). In words: cell-based or functional assay.
Test [2] addresses Mouse RPTPσ sEcto-Fc (mouse) (UniProt B0V2N1). Put plainly: solid phase binding assay, immobilised mouse RPTPσ sEcto-Fc, bound AP activity; Kd from the binding curve, one-to-one binding assumed; Scatchard inset.
The target is the same in test [3]. The test is described as above. This is another data set of the same source.
The test system of test [4] is RPTPσ−/− P8 mouse DRG neurons. In words: DRG neurite outgrowth assay in RPTPσ−/− neurons. The test is classed as cell-based. Conditions: neurocan 5 μg/ml or glypican-2 30 μg/ml; 48 hours. The procedure:
(§1) DRGs of P8-12 RPTPσ^+/+ or RPTPσ^−/− mice were cut off from all roots. Neurons were dissociated and subjected to neurite outgrowth assays and analysis as described previously (S2). For experiments in FIG. 1, recombinant mouse Neurocan (5800-NC, R&D Systems) was used at 5 μg/ml and recombinant mouse Glypican-2 (2355-GP, R&D Systems) at 30 μg/ml. In FIG. 5, 30 μg/ml of Glypican-2 was pre-incubated with 1 unit/ml of Heparitinase III (HPNIII, H8891, Sigma) at 37° C. for 4 hrs where indicated, prior to use in outgrowth assays. For experiments in FIG. 19, recombinant mouse glypican-2 was used at 5 μg/ml, and Chondroitin Sulfate Proteoglycan mixture (CSPG, CC117, Millipore) was at 125 μg/ml. For experiments in FIGS. 24 and 25, Chondroitin Sulfate Proteoglycan mixture (CSPG, CC117, Millipore) was at 60 μg/ml, with or without the addition of HS at indicated length and concentration (1 μM for all HS in […]). Proteoglycans and heparin oligosaccharides were added to neuronal cultures 30 min after seeding and were replenished 24 hrs later. At 48 hrs after seeding, cells were fixed and immunostained with anti-GAP43 antibody (NB300-143, Novus). The whole of each well was scanned with a fluorescence microscope and the images were then analyzed for total neurite outgrowth using the Metamorph program.

In test [5] the test system is wild-type mouse DRG neurons. In words: DRG neurite outgrowth assay (GAP-43 immunostaining, total neurite outgrowth). To be noted: for effect on neurite outgrowth of wild-type neurons: poly-D-lysine/laminin supplemented with neurocan 5 μg/ml or glypican-2 30 μg/ml. The test is classed as cell-based. As to the method:
as §1

The target of the next test is T1, mouse RPTPσ sEcto-Fc (Mus musculus, UniProt B0V2N1).
T1 construct: made in house; host or cells: transiently transfected 293T cells
T1 sequence (B0V2N1 30-851 isoform B0V2N1-3 limits assumed): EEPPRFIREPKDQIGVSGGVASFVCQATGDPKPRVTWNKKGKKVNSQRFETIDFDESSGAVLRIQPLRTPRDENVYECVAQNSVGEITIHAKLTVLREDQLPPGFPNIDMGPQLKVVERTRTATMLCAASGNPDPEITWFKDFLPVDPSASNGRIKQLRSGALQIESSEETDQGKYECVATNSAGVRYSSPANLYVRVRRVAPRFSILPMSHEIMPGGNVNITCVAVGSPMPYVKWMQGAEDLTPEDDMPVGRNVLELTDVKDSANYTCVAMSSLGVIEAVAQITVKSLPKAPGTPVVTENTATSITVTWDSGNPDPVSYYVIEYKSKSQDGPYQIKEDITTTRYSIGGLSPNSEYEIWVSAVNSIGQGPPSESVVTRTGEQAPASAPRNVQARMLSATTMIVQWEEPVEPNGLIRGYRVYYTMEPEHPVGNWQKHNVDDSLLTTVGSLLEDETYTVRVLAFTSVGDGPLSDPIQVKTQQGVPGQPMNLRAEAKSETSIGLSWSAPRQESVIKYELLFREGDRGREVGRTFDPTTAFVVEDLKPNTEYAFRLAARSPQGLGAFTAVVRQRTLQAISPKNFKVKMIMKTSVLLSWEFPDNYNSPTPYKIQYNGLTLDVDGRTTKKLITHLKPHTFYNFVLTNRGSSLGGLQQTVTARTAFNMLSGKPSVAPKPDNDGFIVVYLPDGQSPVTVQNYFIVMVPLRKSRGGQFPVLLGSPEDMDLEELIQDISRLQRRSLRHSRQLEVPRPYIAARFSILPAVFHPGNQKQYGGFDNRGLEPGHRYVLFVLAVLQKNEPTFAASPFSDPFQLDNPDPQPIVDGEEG
Put plainly: Solid phase binding assay: proteoglycan-AP fusion proteins on immobilised RPTPσ sEcto-Fc. Conditions: neurocan pre-treated with chondroitinase ABC; glypican-2 pre-treated with heparitinase III. The procedure:
Analysis of binding between RPTPσ sEcto-Fc and Glypican-2 or Neurocan alkaline phosphate (AP) fusion proteins was performed as described previously (S2, S26). All fusion proteins were produced in transiently transfected 293T cells. Briefly, the RPTPσ Fc-fusion protein was immobilised on 96-well Reactibind Protein A-coated plates (Pierce) and incubated with soluble proteoglycan-AP proteins which had been normalized for equal input AP activity. AP activity was determined by measuring substrate turnover on a microplate reader as described (S27, S28). […] In FIG. 23, the binding between RPTPσ-Fc and heparin-derived size-fractionated oligosaccharides with different lengths (HS6, HS8, HS10, HS17, HS23, HS30 and HS67, corresponding to hexasaccharide, octasaccharide, decasaccharide, or approximately 17, 23, 30 and 67 saccharide units; molecular weights 1,800 Da, 3,000 Da, 5,000 Da, 7,000 Da, 9,000 Da, and 20,000 Da; Neoparin) was analyzed with RPTPσ-Fc immobilised on 96-well Reactibind Protein A-coated plates (Pierce) and incubated with soluble biotinalated HS. The bound HS was quantified by AP enzyme activity following incubation with streptavidin-AP (Promega). […]

“Also recorded” adds a separate entry of the source. Read-outs that look alike come from different tables or passages of the source.

This note sets out measurements from US9744188B2, “Methods of promoting neuronal outgrowth by gypican 2 that binds to receptor protein tyrosine phosphatase sigma” (PRESIDENT AND FELLOWS OF HARVARD COLLEGE, priority 2011, dated 2017).

“recombinant mouse Neurocan (5800-NC, R&D Systems) (from UniProt P55066 23-637)”: in test [1], the decrease in outgrowth of wild-type DRG neurons (neurite outgrowth assay) was 60%.

Molecule Neurocan-alkaline phosphatase yielded a Kd in test [2] of 21.2 nM.

B1: Glypican-2-AP (protein, mouse, UniProt Q8BKV1 22-555, looked up, not shown: large carriers)
chain: HGSEAKVVRSCAETRQVLGARGYSLNLIPPSLISGEHLQVCPQEYTCCSSETEQKLIRDAEVTFRGLVEDSGSFLIHTLAARHRKFNEFFREMLSISQHSLAQLFSHSYGRLYSQHAVIFNSLFSGLRDYYEKSGEGLDDTLADFWAQLLERAFPLLHPQYSFPPDFLLCLTRLTSTADGSLQPFGDSPRRLRLQISRALVAARALVQGLETGRNVVSEALKVPVLEGCRQALMRLIGCPLCRGVPSLMPCRGFCLNVAHGCLSSRGLEPEWGGYLDGLLLLAEKLQGPFSFELAAESIGVKISEGLMHLQENSVKVSAKVFQECGTPHPVQSRSRRAPAPREEASRSWRASAEEERPTTAAGTNLHRLVWELRERLSRVRGFWAGLPVTVCGDSRMAADLSQETAPCWTGVGRGRYMSPVVVGSLNEQLHNPELDTSSPDVPTRRRRLHLRAATARMKAAALGQDLDMHDADEDASGSGGGQQYADDWKAGAVPVVPPARPPRPPRPPRRDGLGVRGGSGSARYNQGRSRNLG
modifications: carries heparan sulfate GAG chains (removed by heparitinase III)
In the case of B1, the Kd in test [3] is 10.5 nM.

B2: glypican-2: a representative HSPG; Glypican2-AP fusion in binding assays, recombinant mouse Glypican-2 (2355-GP, R&D Systems) in outgrowth assays (protein)
chain: HGSEAKVVRSCAETRQVLGARGYSLNLIPPSLISGEHLQVCPQEYTCCSSETEQKLIRDAEVTFRGLVEDSGSFLIHTLAARHRKFNEFFREMLSISQHSLAQLFSHSYGRLYSQHAVIFNSLFSGLRDYYEKSGEGLDDTLADFWAQLLERAFPLLHPQYSFPPDFLLCLTRLTSTADGSLQPFGDSPRRLRLQISRALVAARALVQGLETGRNVVSEALKVPVLEGCRQALMRLIGCPLCRGVPSLMPCRGFCLNVAHGCLSSRGLEPEWGGYLDGLLLLAEKLQGPFSFELAAESIGVKISEGLMHLQENSVKVSAKVFQECGTPHPVQSRSRRAPAPREEASRSWRASAEEERPTTAAGTNLHRLVWELRERLSRVRGFWAGLPVTVCGDSRMAADLSQETAPCWTGVGRGRYMSPVVVGSLNEQLHNPELDTSSPDVPTRRRRLHLRAATARMKAAALGQDLDMHDADEDASGSGGGQQYADDWKAGAVPVVPPARPPRPPRPPRRDGLGVRGGSGSARYNQGRSRNLGS
Consider B2, for which the “effect on neurite outgrowth of RPTPσ−/− neurons compared with wild-type” value in test [4] is on record as “reduced to undetectable levels”. Moreover, in test [5] (glypican-2 5 μg/ml, wild-type P10 DRG neurons (FIG. 19)), the “neurite outgrowth relative to control at lower concentration” value was “promoted outgrowth to a lesser extent”. In addition, in test [5] (glypican-2 30 μg/ml pre-incubated with 1 unit/ml HPNIII), the “growth-promoting effect after heparitinase III treatment” value is reported as “significantly reduced its growth-promoting ability; also recorded: did not completely eliminate the growth promoting effect”. For the same molecule, the “effect on neurite outgrowth of wild-type neurons” value in test [5] (48 hours) is “strongly promoted outgrowth; also recorded: promotion of outgrowth”. Moreover, the “binding to RPTPσ after enzymatic removal of GAG chains” value in the test with mouse RPTPσ sEcto-Fc is “dramatically reduced binding”.

B3: neurocan: a representative CSPG; Neurocan-AP fusion in binding assays, recombinant mouse Neurocan (5800-NC, R&D Systems) in outgrowth assays (protein)
chain: DQDTQDTTATEKGLRMLKSGSGPVRAALAELVALPCFFTLQPRLSSLRDIPRIKWTKVQTASGQRQDLPILVAKDNVVRVAKGWQGRVSLPAYPRHRANATLLLGPLRASDSGLYRCQVVKGIEDEQDLVTLEVTGVVFHYRAARDRYALTFAEAQEACRLSSATIAAPRHLQAAFEDGFDNCDAGWLSDRTVRYPITQSRPGCYGDRSSLPGVRSYGRRDPQELYDVYCFARELGGEVFYVGPARRLTLAGARAQCQRQGAALASVGQLHLAWHEGLDQCDPGWLADGSVRYPIQTPRRRCGGPAPGVRTVYRFANRTGFPAPGARFDAYCFRAHHHTAQHGDSEIPSSGDEGEIVSAEGPPGRELKPSLGEQEVIAPDFQEPLMSSGEGEPPDLTWTQAPEETLGSTPGGPTLASWPSSEKWLFTGAPSSMGVSSPSDMGVDMEATTPLGTQVAPTPTMRRGRFKGLNGRHFQQQGPEDQLPEVAEPSAQPPTLGATANHMRPSAATEASESDQSHSPWAILTNEVDEPGAGSLGSRSLPESLMWSPSLISPSVPSTESTPSPKPGAAEAPSVKSAIPHLPRLPSEPPAPSPGPSEALSAVSLQASSADGSPD
For the molecule B3, in test [4], the “effect on neurite outgrowth of RPTPσ−/− neurons compared with wild-type” value is on record as “inhibitory effect was decreased”. For the same molecule, in test [5] (48 hours), the “effect on neurite outgrowth of wild-type neurons” value was “inhibition”. Moreover, the “reduction of neurite outgrowth” value in test [5] (wild-type DRG neurons, neurocan 5 μg/ml, 48 hours) is reported as “approximately 60%”. Further, the “binding to RPTPσ after enzymatic removal of GAG chains” value with mouse RPTPσ sEcto-Fc is “dramatically reduced binding”.
